The results in this text go back to publication PMC11211662, “A novel alcohol dehydrogenase in the hyperthermophilic crenarchaeon Hyperthermus butylicus” (mLife, 2024).

Common to all, as to test: purified protein
Substrate in data set [1]: CC(C)O
As to conditions: oxidation, 0.4 mM NADP+, 100 mM EPPS pH 9.0, 80 °C, anaerobic.

Substrate in data set [2]: CCO
Conditions: oxidation, 0.4 mM NADP+, 100 mM EPPS pH 9.0, 80 °C, anaerobic.

Substrate in data set [3]: CC(C)=O
The data set is classed as biochemical, Hyperthermus butylicus. Conditions: reduction, 0.2 mM NADPH, 100 mM PIPES pH 6.0, 80 °C, anaerobic, pH 6.0.

Substrate in data set [4]: CC=O
Type of data set: biochemical, Hyperthermus butylicus. As to conditions: reduction, 0.2 mM NADPH, 100 mM PIPES pH 6.0, 80 °C, anaerobic, pH 6.0.

Substrate in data set [5]: CCC=O
The data set is classed as biochemical, Hyperthermus butylicus. As to conditions: reduction, 0.2 mM NADPH, 100 mM PIPES pH 6.0, 80 °C, anaerobic, pH 6.0.

Substrate in data set [6]: CCCC=O
Type of data set: biochemical, Hyperthermus butylicus. Conditions: reduction, 0.2 mM NADPH, 100 mM PIPES pH 6.0, 80 °C, anaerobic, pH 6.0.

Substrate in data set [7]: CCCCO
Type of data set: biochemical, Hyperthermus butylicus. Conditions: oxidation, 0.4 mM NADP+, 100 mM EPPS pH 9.0, 80 °C, anaerobic, pH 9.0.

Substrate in data set [8]: CCCO
The data set is classed as biochemical, Hyperthermus butylicus. Conditions: oxidation, 0.4 mM NADP+, 100 mM EPPS pH 9.0, 80 °C, anaerobic, pH 9.0.

B1: HbADH2 (Hyperthermus butylicus DSM 5456) (protein)
chain: MLRRLQSSLRDYVRKYIVRLNCNAGGTTCKPSSTECQRFLAEPNLPQALLLAGYRLLDCTCSSGGGVSIELVGTSGDTIPARLCLDCGSIFPALTLKAQLPLSTSIPPYRGPIQEAMLKTVETIAQFCAHRKGLPLLLDTVLAEPARMCKVKLGCRPIHISSFEKADLGTVSPRIKLPTILSWITLRLRKSIEIEAPWLCVESNNGALQLVCLSETCRFEVTHCGSVRLIHGKAIALPSSTRCSPALLHLVYLYGTLYKSIDDVNVKPCIWSMTGLAILGAWYSTGENGESMMLLVWNPLKKSKLHEIVFERHRIVEAKLTSPATWLEEQLIPQYNRLRIPLPPHGARLVYVRLRKLPRLLSKNANG
notes: native protein purified anaerobically from H. butylicus cell-free extract (DEAE-Sepharose, hydroxyapatite, phenyl-Sepharose); untagged; 367 residues deduced, 40,694 Da calculated; gene assigned by mass spectrometry of the gel band, not by recombinant expression
As a reminder, the Km is the concentration of substrate that gives half-maximal velocity. Usually kcat stands for the maximal rate divided by the concentration of active sites. Broadly, the kcat/Km is the second-order rate constant that governs catalysis at low substrate concentration. As to B1, the Km in “purified protein [1]” stood at 3.74 ± 0.46 mM; in the data set “purified protein [2]”, 4.36 ± 0.42 mM; in “purified protein [3]” it was 0.68 ± 0.04 mM; in “purified protein [4]”, 1.27 ± 0.18 mM; in the data set “purified protein [5]”, 1.55 ± 0.20 mM; in the data set “purified protein [6]” it was 0.59 ± 0.07 mM. Moreover, the figures for the Km in the data set “purified protein [7]” and in “purified protein [8]” were 2.44 ± 0.30 mM and 4.69 ± 0.41 mM, respectively. Further, the kcat in the data set “purified protein [1]” is 3.47 s⁻¹; in the data set “purified protein [2]” it was 4 s⁻¹; in the data set “purified protein [3]”, 3.84 ± 0.06 s⁻¹; in “purified protein [4]”, 7 ± 0.31 s⁻¹; in the data set “purified protein [5]”, 1.79 ± 0.07 s⁻¹; in “purified protein [6]”, 8 ± 0.22 s⁻¹. Moreover, the kcat in “purified protein [7]” worked out at 6.84 ± 0.24 s⁻¹; in “purified protein [8]”, 4.4 ± 0.12 s⁻¹. Further, the catalytic efficiency (kcat/Km) in “purified protein [1]” worked out at 928 M⁻¹ s⁻¹; in “purified protein [2]”, 915 M⁻¹ s⁻¹; in the data set “purified protein [3]” it was 8070 ± 1520 M⁻¹ s⁻¹; in “purified protein [4]” it was 5510 ± 1720 M⁻¹ s⁻¹; in the data set “purified protein [5]”, 1160 ± 338 M⁻¹ s⁻¹; in “purified protein [6]”, 13600 ± 3140 M⁻¹ s⁻¹. Further, the values for the kcat/Km in the data set “purified protein [7]” and in the data set “purified protein [8]” were 2800 ± 814 M⁻¹ s⁻¹ and 938 ± 293 M⁻¹ s⁻¹, respectively.
